From patent publication US20250171562A1

B1: NIgG4B2A1(G4S)1 (Fc fusion)
chain 1: QVQLVESGGGLVQAGGSLRLSCAVFGSTFSNNVADWYRQAPGKQRELVARISASGATREYGDSVKGRFTISRDDAKNTMYLQMNNLKPEDTAVYRCHKIEWEDLSRKDYWGQGTQVTVSGGGGSGPPCPPCPAPEFLGGPSVFLFPPKPKDTLMISRTPEVTCVVVDVSQEDPEVQFNWYVDGVEVHNAKTKPREEQFNSTYRVVSVLTVLHQDWLNGKEYKCKVSNKGLPSSIEKTISKAKGQPREPQVYTLPPCQEEMTKNQVSLWCLVKGFYPSDIAVEWESNGQPENNYKTTPPVLDSDGSFFLYSRLTVDKSRWQEGNVFSCSVMHEALHNHYTQKSLSLSLGK
chain 2: EVQLLESGGGLVQPGGSLRLSCAASGFTFGNYDMAWVRQAPGKRPEWVSSIDTGGDITHYADSVKGRFTISRDNAKNTLYLQMNSLRPEDTAVYWCATDEEYALGPNEFDYYGQGTLVTVSSGGGGSGPPCPPCPAPEFLGGPSVFLFPPKPKDTLMISRTPEVTCVVVDVSQEDPEVQFNWYVDGVEVHNAKTKPREEQFNSTYRVVSVLTVLHQDWLNGKEYKCKVSNKGLPSSIEKTISKAKGQPREPQVCTLPPSQEEMTKNQVSLSCAVKGFYPSDIAVEWESNGQPENNYKTTPPVLDSDGSFFLVSRLTVDKSRWQEGNVFSCSVMHEALHNHYTQKSLSLSLGK
B2: CIgG4B1A2(G4S)3 (Fc fusion)
chain 1: GPPCPPCPAPEFLGGPSVFLFPPKPKDTLMISRTPEVTCVVVDVSQEDPEVQFNWYVDGVEVHNAKTKPREEQFNSTYRVVSVLTVLHQDWLNGKEYKCKVSNKGLPSSIEKTISKAKGQPREPQVYTLPPCQEEMTKNQVSLWCLVKGFYPSDIAVEWESNGQPENNYKTTPPVLDSDGSFFLYSRLTVDKSRWQEGNVFSCSVMHEALHNHYTQKSLSLSLGKGGGGSGGGGSGGGGSQVQLQESGGGLVQTGGSLRLSCAVHGRTFSNTGMGWFRQAPGNERQFVAIISPSGTSTYYADSVKGRFTISRDPAKNTVYLQMNSLKMDDTAVYYCAASYGSNWSTLRHQRRNEYDAWGQGTQVAVS
chain 2: GPPCPPCPAPEFLGGPSVFLFPPKPKDTLMISRTPEVTCVVVDVSQEDPEVQFNWYVDGVEVHNAKTKPREEQFNSTYRVVSVLTVLHQDWLNGKEYKCKVSNKGLPSSIEKTISKAKGQPREPQVCTLPPSQEEMTKNQVSLSCAVKGFYPSDIAVEWESNGQPENNYKTTPPVLDSDGSFFLVSRLTVDKSRWQEGNVFSCSVMHEALHNHYTQKSLSLSLGKGGGGSGGGGSGGGGSEVQLLESGGGLVQPGGSLRLSCAASGFRFGNYDMAWVRQAPGKRYEWVSSIDTGGDITHYADSVKGRFTISRDNAKNTLYLQMNSLRPEDTAEYWCATDEEYALGPNEFDYYGQGTLVTVS
B3: CIgG4B1A2(G4S)2 (Fc fusion)
chain 1: GPPCPPCPAPEFLGGPSVFLFPPKPKDTLMISRTPEVTCVVVDVSQEDPEVQFNWYVDGVEVHNAKTKPREEQFNSTYRVVSVLTVLHQDWLNGKEYKCKVSNKGLPSSIEKTISKAKGQPREPQVYTLPPCQEEMTKNQVSLWCLVKGFYPSDIAVEWESNGQPENNYKTTPPVLDSDGSFFLYSRLTVDKSRWQEGNVFSCSVMHEALHNHYTQKSLSLSLGKGGGGSGGGGSQVQLQESGGGLVQTGGSLRLSCAVHGRTFSNTGMGWFRQAPGNERQFVAIISPSGTSTYYADSVKGRFTISRDPAKNTVYLQMNSLKMDDTAVYYCAASYGSNWSTLRHQRRNEYDAWGQGTQVAVS
chain 2: GPPCPPCPAPEFLGGPSVFLFPPKPKDTLMISRTPEVTCVVVDVSQEDPEVQFNWYVDGVEVHNAKTKPREEQFNSTYRVVSVLTVLHQDWLNGKEYKCKVSNKGLPSSIEKTISKAKGQPREPQVCTLPPSQEEMTKNQVSLSCAVKGFYPSDIAVEWESNGQPENNYKTTPPVLDSDGSFFLVSRLTVDKSRWQEGNVFSCSVMHEALHNHYTQKSLSLSLGKGGGGSGGGGSEVQLLESGGGLVQPGGSLRLSCAASGFRFGNYDMAWVRQAPGKRYEWVSSIDTGGDITHYADSVKGRFTISRDNAKNTLYLQMNSLRPEDTAEYWCATDEEYALGPNEFDYYGQGTLVTVS
B4: CIgG4B1A2(G4S)1 (Fc fusion)
chain 1: GPPCPPCPAPEFLGGPSVFLFPPKPKDTLMISRTPEVTCVVVDVSQEDPEVQFNWYVDGVEVHNAKTKPREEQFNSTYRVVSVLTVLHQDWLNGKEYKCKVSNKGLPSSIEKTISKAKGQPREPQVYTLPPCQEEMTKNQVSLWCLVKGFYPSDIAVEWESNGQPENNYKTTPPVLDSDGSFFLYSRLTVDKSRWQEGNVFSCSVMHEALHNHYTQKSLSLSLGKGGGGSQVQLQESGGGLVQTGGSLRLSCAVHGRTFSNTGMGWFRQAPGNERQFVAIISPSGTSTYYADSVKGRFTISRDPAKNTVYLQMNSLKMDDTAVYYCAASYGSNWSTLRHQRRNEYDAWGQGTQVAVS
chain 2: GPPCPPCPAPEFLGGPSVFLFPPKPKDTLMISRTPEVTCVVVDVSQEDPEVQFNWYVDGVEVHNAKTKPREEQFNSTYRVVSVLTVLHQDWLNGKEYKCKVSNKGLPSSIEKTISKAKGQPREPQVCTLPPSQEEMTKNQVSLSCAVKGFYPSDIAVEWESNGQPENNYKTTPPVLDSDGSFFLVSRLTVDKSRWQEGNVFSCSVMHEALHNHYTQKSLSLSLGKGGGGSEVQLLESGGGLVQPGGSLRLSCAASGFRFGNYDMAWVRQAPGKRYEWVSSIDTGGDITHYADSVKGRFTISRDNAKNTLYLQMNSLRPEDTAEYWCATDEEYALGPNEFDYYGQGTLVTVS
B5: NIgG4B2A1(RS) (Fc fusion)
chain 1: QVQLVESGGGLVQAGGSLRLSCAVFGSTFSNNVADWYRQAPGKQRELVARISASGATREYGDSVKGRFTISRDDAKNTMYLQMNNLKPEDTAVYRCHKIEWEDLSRKDYWGQGTQVTVSRSGPPCPPCPAPEFLGGPSVFLFPPKPKDTLMISRTPEVTCVVVDVSQEDPEVQFNWYVDGVEVHNAKTKPREEQFNSTYRVVSVLTVLHQDWLNGKEYKCKVSNKGLPSSIEKTISKAKGQPREPQVYTLPPCQEEMTKNQVSLWCLVKGFYPSDIAVEWESNGQPENNYKTTPPVLDSDGSFFLYSRLTVDKSRWQEGNVFSCSVMHEALHNHYTQKSLSLSLGK
chain 2: EVQLLESGGGLVQPGGSLRLSCAASGFTFGNYDMAWVRQAPGKRPEWVSSIDTGGDITHYADSVKGRFTISRDNAKNTLYLQMNSLRPEDTAVYWCATDEEYALGPNEFDYYGQGTLVTVSSRSGPPCPPCPAPEFLGGPSVFLFPPKPKDTLMISRTPEVTCVVVDVSQEDPEVQFNWYVDGVEVHNAKTKPREEQFNSTYRVVSVLTVLHQDWLNGKEYKCKVSNKGLPSSIEKTISKAKGQPREPQVCTLPPSQEEMTKNQVSLSCAVKGFYPSDIAVEWESNGQPENNYKTTPPVLDSDGSFFLVSRLTVDKSRWQEGNVFSCSVMHEALHNHYTQKSLSLSLGK
B6: NIgG4B2A1(G4S)2 (Fc fusion)
chain 1: QVQLVESGGGLVQAGGSLRLSCAVFGSTFSNNVADWYRQAPGKQRELVARISASGATREYGDSVKGRFTISRDDAKNTMYLQMNNLKPEDTAVYRCHKIEWEDLSRKDYWGQGTQVTVSGGGGSGGGGSGPPCPPCPAPEFLGGPSVFLFPPKPKDTLMISRTPEVTCVVVDVSQEDPEVQFNWYVDGVEVHNAKTKPREEQFNSTYRVVSVLTVLHQDWLNGKEYKCKVSNKGLPSSIEKTISKAKGQPREPQVYTLPPCQEEMTKNQVSLWCLVKGFYPSDIAVEWESNGQPENNYKTTPPVLDSDGSFFLYSRLTVDKSRWQEGNVFSCSVMHEALHNHYTQKSLSLSLGK
chain 2: EVQLLESGGGLVQPGGSLRLSCAASGFTFGNYDMAWVRQAPGKRPEWVSSIDTGGDITHYADSVKGRFTISRDNAKNTLYLQMNSLRPEDTAVYWCATDEEYALGPNEFDYYGQGTLVTVSSGGGGSGGGGSGPPCPPCPAPEFLGGPSVFLFPPKPKDTLMISRTPEVTCVVVDVSQEDPEVQFNWYVDGVEVHNAKTKPREEQFNSTYRVVSVLTVLHQDWLNGKEYKCKVSNKGLPSSIEKTISKAKGQPREPQVCTLPPSQEEMTKNQVSLSCAVKGFYPSDIAVEWESNGQPENNYKTTPPVLDSDGSFFLVSRLTVDKSRWQEGNVFSCSVMHEALHNHYTQKSLSLSLGK
B7: CIgG4B2A1(RS) (Fc fusion)
chain 1: GPPCPPCPAPEFLGGPSVFLFPPKPKDTLMISRTPEVTCVVVDVSQEDPEVQFNWYVDGVEVHNAKTKPREEQFNSTYRVVSVLTVLHQDWLNGKEYKCKVSNKGLPSSIEKTISKAKGQPREPQVYTLPPCQEEMTKNQVSLWCLVKGFYPSDIAVEWESNGQPENNYKTTPPVLDSDGSFFLYSRLTVDKSRWQEGNVFSCSVMHEALHNHYTQKSLSLSLGKRSQVQLVESGGGLVQAGGSLRLSCAVFGSTFSNNVADWYRQAPGKQRELVARISASGATREYGDSVKGRFTISRDDAKNTMYLQMNNLKPEDTAVYRCHKIEWEDLSRKDYWGQGTQVTVS
chain 2: GPPCPPCPAPEFLGGPSVFLFPPKPKDTLMISRTPEVTCVVVDVSQEDPEVQFNWYVDGVEVHNAKTKPREEQFNSTYRVVSVLTVLHQDWLNGKEYKCKVSNKGLPSSIEKTISKAKGQPREPQVCTLPPSQEEMTKNQVSLSCAVKGFYPSDIAVEWESNGQPENNYKTTPPVLDSDGSFFLVSRLTVDKSRWQEGNVFSCSVMHEALHNHYTQKSLSLSLGKRSEVQLLESGGGLVQPGGSLRLSCAASGFTFGNYDMAWVRQAPGKRPEWVSSIDTGGDITHYADSVKGRFTISRDNAKNTLYLQMNSLRPEDTAVYWCATDEEYALGPNEFDYYGQGTLVTVSS
B8: NIgG4B2A1(G4S)3 (Fc fusion)
chain 1: QVQLVESGGGLVQAGGSLRLSCAVFGSTFSNNVADWYRQAPGKQRELVARISASGATREYGDSVKGRFTISRDDAKNTMYLQMNNLKPEDTAVYRCHKIEWEDLSRKDYWGQGTQVTVSGGGGSGGGGSGGGGSGPPCPPCPAPEFLGGPSVFLFPPKPKDTLMISRTPEVTCVVVDVSQEDPEVQFNWYVDGVEVHNAKTKPREEQFNSTYRVVSVLTVLHQDWLNGKEYKCKVSNKGLPSSIEKTISKAKGQPREPQVYTLPPCQEEMTKNQVSLWCLVKGFYPSDIAVEWESNGQPENNYKTTPPVLDSDGSFFLYSRLTVDKSRWQEGNVFSCSVMHEALHNHYTQKSLSLSLGK
chain 2: EVQLLESGGGLVQPGGSLRLSCAASGFTFGNYDMAWVRQAPGKRPEWVSSIDTGGDITHYADSVKGRFTISRDNAKNTLYLQMNSLRPEDTAVYWCATDEEYALGPNEFDYYGQGTLVTVSSGGGGSGGGGSGGGGSGPPCPPCPAPEFLGGPSVFLFPPKPKDTLMISRTPEVTCVVVDVSQEDPEVQFNWYVDGVEVHNAKTKPREEQFNSTYRVVSVLTVLHQDWLNGKEYKCKVSNKGLPSSIEKTISKAKGQPREPQVCTLPPSQEEMTKNQVSLSCAVKGFYPSDIAVEWESNGQPENNYKTTPPVLDSDGSFFLVSRLTVDKSRWQEGNVFSCSVMHEALHNHYTQKSLSLSLGK

What follows are binders tested against mixture of three Der p 2 specific recombinant human IgE clones H10, H12, P4E (human) (UniProt P01854) (assay: RBL-SX38 IgE displacement, FACS).
Sequence of mixture of three Der p 2 specific recombinant human IgE clones H10, H12, P4E (human) (P01854 other isoform, or with tags, fused parts or gaps): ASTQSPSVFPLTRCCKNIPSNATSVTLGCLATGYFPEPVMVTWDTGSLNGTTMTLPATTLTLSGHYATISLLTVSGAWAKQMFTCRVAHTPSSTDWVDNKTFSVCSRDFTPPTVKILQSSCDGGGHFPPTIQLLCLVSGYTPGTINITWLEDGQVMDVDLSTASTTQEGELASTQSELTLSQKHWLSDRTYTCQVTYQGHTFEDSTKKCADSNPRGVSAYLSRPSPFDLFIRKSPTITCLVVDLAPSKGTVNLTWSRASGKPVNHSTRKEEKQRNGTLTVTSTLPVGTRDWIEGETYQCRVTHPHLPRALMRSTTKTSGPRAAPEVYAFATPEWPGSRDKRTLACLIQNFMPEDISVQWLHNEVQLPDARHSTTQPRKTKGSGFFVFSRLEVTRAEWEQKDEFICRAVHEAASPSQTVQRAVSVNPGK
B1 gave an EC50 of 0.3 nM and a Max effect/effect 1 µM of 97%.
B2 gave an EC50 of 5.3 nM and a Max effect/effect 1 µM of 100%.
In the case of B3, the EC50 is reported as 6.1 nM and the Max effect/effect 1 µM is reported as 100%.
B4 gave an EC50 of 8.1 nM and a Max effect/effect 1 µM of 100%.
Work on B5 yielded an EC50 of 0.4 nM and a Max effect/effect 1 µM of 99%.
B6 showed an EC50 of 0.3 nM and a Max effect/effect 1 µM of 98%.
With B7 the EC50 was 273 nM and the Max effect/effect 1 µM was 70%.
In the case of B8, the EC50 is reported as 0.5 nM and the Max effect/effect 1 µM is reported as 98%.
